Measurements reported in publication PMC4017622.
Like-named read-outs stand apart in the source and are kept apart here.

Legend:
[1] = molecular target: T1, Pf-SSB (wild type, lacks apicoplast localization signal) (Plasmodium falciparum 3D7, UniProt Q8I415 77-284); experiment: Trp fluorescence quenching titration
[2] = molecular target: Pf-SSB crystallized form (Plasmodium falciparum 3D7, UniProt Q8I415 77-194); experiment: X-ray crystallography
[3] = molecular target: T1, Pf-SSB (wild type, lacks apicoplast …); experiment: Trp fluorescence quenching titration; remark: listed apart in the source

Binder | binding result [1] | binding result [2] | binding result [3]
TTTTTTTTTTTTTTTTTTTTTTTTTTTTTTTTTTT (ssDNA) [(dT)35] | binds | binds | 
(dT)70 (ssDNA) DNA: TTTTTTTTTTTTTTTTTTTTTTTTTTTTTTTTTTTTTTTTTTTTTTTTTTTTTTTTTTTTTTTTTTTTTT |  |  | binds
